Source: patent US10654917B2, “Antibody molecules and peptide delivery systems for use in alzheimer's disease and related disorders” (TECHNOPHAGE, INVESTIGAÇĀO E DESENVOLVIMENTO EM …, priority 2015, dated 2020)

B1: #2: anti-BAP42 sdAb, SEQ ID NO: 1 (antibody, V domains shown)
VL: ELVMTQTPSPVSAAVGGTVSISCQSSKSVYNNNWLSWFQQKPGQPPKLLIYSASTLASGVSSRFKGSGSGTQFTLTISDVQCDDAATYYCQGEFDCSGDCNVFGGGTELEIL
B2: #26: anti-BAP42 sdAb, SEQ ID NO: 18 (antibody, V domains shown)
VL: ELDLTQTPSPVSAAVGGTVTISCQSSESVYSNNRLAWYQQKPGQPPKLLIYLASSLASGVPSRFKGSGSGTQFTLTIRDLECDDAATYYCLGYRSGSDGDAFGGGTELEIL
B3: #20: anti-BAP42 sdAb, SEQ ID NO: 2 (protein)
VHH: ELDLTQTPSSKSVPVGDTVTINCQASESVYSNNRLAWFQQKPGQPPKLLIYYASTLASGVPSRFKGSGSGTQFTLTISDVVCDDAATYYCAGYKSSTSDGIAFGGGTEVVVK
modifications: /note=“Description of Unknown rabbit immunoglobulin VL domain polypeptide”; /note=“#20”

What was measured:
oligomeric form of BAP42 = biological target: T1, oligomeric form of BAP42 (Homo sapiens, UniProt P05067); assay: BIAcore binding profile to BAP42 oligomers
T1 construct: “beta-amyloid peptide 42”, or “beta-amyloid peptide 1-42”; oligomerised in house (1 mg/mL, stirring 16 h at 37 °C, retained on 5 kDa filter)
T1 sequence (P05067 672-713 limits assumed): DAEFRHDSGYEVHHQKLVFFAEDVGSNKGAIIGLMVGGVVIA
Description: Anti-oligomer sdAbs where characterized further regarding their relative binding profile to BAP42 oligomers by BIAcore.
Results are showing in FIGS. 16A-16D, respectively (kinetic studies) and Tables 14-16, respectively (biodistribution studies), presented below.

[1] = set-up: species or system CD1 mice; settings: mouse, in vivo
Description: The different antibody-peptide constructs were used in biodistribution assays, and results compared with the biodistribution of the respective DEN2C peptides (pepH1, pepH2, pepH3, and pepM′, chemically synthesized). […] After expression and purification, the sdAbs and sdAb-peptide constructs were conjugated to technetium (^99Tc) and a biodistribution assay was performed, as previously described.
Tables 14-16 show the biodistribution of different anti-BAP42 sdAbs and constructs thereof with different peptides (“pepH3”).

[2] = CAT-fusion assay: chloramphenicol resistance as measure of sdAb stability; format: cell-based, E. coli
Description: Clones were further selected for stability using a modified CAT-fusion assay, as previously described (see, e.g., WO 2008/136694 to Goncalves et al). Specifically, the CAT gene was amplified from pCAT (Stratagene) by PCR and inserted into pET-derived plasmid using EcoRI and SphI restriction sites to create the pE-CAT. The 5′PCR primer originally used to clone the variable domains was also designed to contain two sequential and different SfiI cloning sites, and an amber codon (TAG) just before the beginning of the CAT gene.
To clone single-domain antibody libraries fused into the CAT gene, SDVL fragments were generated by PCR from phagemid vectors selected by panning. The resulting SDVL PCR fragments were gel-purified, digested with the restriction endonuclease SfiI, and cloned independently into the appropriately SfiI-cut vector pE-CAT. The pSDVL-CAT constructs were under the control of the strong Lac promoter that also included an N-terminal His6 affinity tag and the ampicillin resistance gene. Alternatively, SDVL fragments may be cloned into readily available vectors designed to express cloned sequences as fusion proteins with CAT, e.g., the PCFN1 vector (see Maxwell, et al (1999) J Prot Sci 8:1908-1911, incorporated by reference in its entirety).
Chloramphenicol resistance assays were performed by transforming ER2783 cells (New England Biolabs, Inc) with each single domain CAT-fusion library. The transformation mixtures were inoculated into 5 mL of SOC and incubated at 37° C. for 1 hour. Next, 10 mL of SB medium with 3 μL of 100 mg/ml ampicillin was added to each library. A total of 15 mL of each culture was shaken for 1 hour at 37° C. Subsequently, 4.5 μL of 100 mg/ml ampicillin was added and cultures shaken for one hour at 37° C. Then 85 mL of SB medium with 85 μL of 100 mg/ml ampicillin was added and cultures grown overnight at 37° C. The following day, 600 μL of each culture was used to inoculate 20 mL of SB medium containing 100 μg/mL of ampicillin.
Expression of CAT-fusion single domain proteins was induced by addition of 0.5 mM IPTG when the optical density of cultures reached 0.9 (at […]). After 2 hours of incubation at 37° C., 100 μL aliquots of each library were plated on agar plates with IPTG (200 μg/mL) and various concentrations of chloramphenicol. Plates were incubated at 37° C. for 16-20 hours. The level of resistance was quantified as the highest level of chloramphenicol at which colonies appeared after the 37° C. incubation period. […] Results are shown in Table 6, below, where +++ indicates over 600 colonies detected; ++ indicates 400-600 colonies detected; + indicates 1-399 colonies detected; and − indicates no colonies detected at the corresponding chloramphenicol concentration. “sdAb2”, “sdAb6”, “sdAb20”, and “sdAb26” are sdAb candidates that bind BAP42 oligomers.

[3] = 10^0, [chloramphenicol] 0.03 mM
[4] = 10^0, [chloramphenicol] 0.06 mM
[5] = 10^0, [chloramphenicol] 0.25 mM
[6] = 10^0, [chloramphenicol] 0.31 mM
[7] = 10^0, [chloramphenicol] 0.62 mM
[8] = 10^0, [chloramphenicol] 1.24 mM
[9] = 10^0, [chloramphenicol] 1.86 mM
[10] = 10^0, [chloramphenicol] 2.48 mM
[11] = 10^−2, [chloramphenicol] 0.03 mM
[12] = 10^−2, [chloramphenicol] 0.06 mM
[13] = 10^−2, [chloramphenicol] 0.25 mM
[14] = 10^−2, [chloramphenicol] 0.31 mM
[15] = 10^−2, [chloramphenicol] 0.62 mM
[16] = 10^−2, [chloramphenicol] 1.24 mM
[17] = 10^−2, [chloramphenicol] 1.86 mM
[18] = 10^−2, [chloramphenicol] 2.48 mM

Molecule | binding profile to the oligomeric form of BAP42 (oligomeric form of BAP42) | factor by which washout from the brain is slowed on linking to delivery peptide pepH3 [1] | factor of increase of presence in the brain on linking to delivery peptide pepH3 [1] | colonies detected (CAT-fusion chloramphenicol resistance) [2, 3] | colonies detected (CAT-fusion chloramphenicol resistance) [2, 4] | colonies detected (CAT-fusion chloramphenicol resistance) [2, 5] | colonies detected (CAT-fusion chloramphenicol resistance) [2, 6] | colonies detected (CAT-fusion chloramphenicol resistance) [2, 7] | colonies detected (CAT-fusion chloramphenicol resistance) [2, 8] | colonies detected (CAT-fusion chloramphenicol resistance) [2, 9] | colonies detected (CAT-fusion chloramphenicol resistance) [2, 10] | colonies detected (CAT-fusion chloramphenicol resistance) [2, 11] | colonies detected (CAT-fusion chloramphenicol resistance) [2, 12] | colonies detected (CAT-fusion chloramphenicol resistance) [2, 13] | colonies detected (CAT-fusion chloramphenicol resistance) [2, 14] | colonies detected (CAT-fusion chloramphenicol resistance) [2, 15] | colonies detected (CAT-fusion chloramphenicol resistance) [2, 16] | colonies detected (CAT-fusion chloramphenicol resistance) [2, 17] | colonies detected (CAT-fusion chloramphenicol resistance) [2, 18]
B1 | best binding profiles | about 2 | about 3 | +++ (+++ indicates over 600 colonies detected) | +++ (+++ indicates over 600 colonies detected) | +++ (+++ indicates over 600 colonies detected) | +++ (+++ indicates over 600 colonies detected) | +++ (+++ indicates over 600 colonies detected) | +++ (+++ indicates over 600 colonies detected) | +++ (+++ indicates over 600 colonies detected) | ++ (++ indicates 400-600 colonies detected) | +++ (+++ indicates over 600 colonies detected) | +++ (+++ indicates over 600 colonies detected) | +++ (+++ indicates over 600 colonies detected) | +++ (+++ indicates over 600 colonies detected) | +++ (+++ indicates over 600 colonies detected) | +++ (+++ indicates over 600 colonies detected) | − (− indicates no colonies detected) | − (− indicates no colonies detected)
B2 | best binding profiles | – | – | +++ (+++ indicates over 600 colonies detected) | +++ (+++ indicates over 600 colonies detected) | +++ (+++ indicates over 600 colonies detected) | +++ (+++ indicates over 600 colonies detected) | +++ (+++ indicates over 600 colonies detected) | +++ (+++ indicates over 600 colonies detected) | +++ (+++ indicates over 600 colonies detected) | ++ (++ indicates 400-600 colonies detected) | +++ (+++ indicates over 600 colonies detected) | +++ (+++ indicates over 600 colonies detected) | +++ (+++ indicates over 600 colonies detected) | +++ (+++ indicates over 600 colonies detected) | +++ (+++ indicates over 600 colonies detected) | +++ (+++ indicates over 600 colonies detected) | − (− indicates no colonies detected) | − (− indicates no colonies detected)
B3 | best binding profiles | – | – | +++ (+++ indicates over 600 colonies detected) | +++ (+++ indicates over 600 colonies detected) | +++ (+++ indicates over 600 colonies detected) | +++ (+++ indicates over 600 colonies detected) | +++ (+++ indicates over 600 colonies detected) | +++ (+++ indicates over 600 colonies detected) | +++ (+++ indicates over 600 colonies detected) | ++ (++ indicates 400-600 colonies detected) | +++ (+++ indicates over 600 colonies detected) | +++ (+++ indicates over 600 colonies detected) | +++ (+++ indicates over 600 colonies detected) | +++ (+++ indicates over 600 colonies detected) | +++ (+++ indicates over 600 colonies detected) | +++ (+++ indicates over 600 colonies detected) | − (− indicates no colonies detected) | − (− indicates no colonies detected)
